Experimental data reported in patent US20200384109A1 (published 2020).

What was measured:
Assay in all cases: SET
[1] = target: BKV serotype II (ST2) virus-like particles (VLPs) (UniProt P14996 1-362)
[2] = target: BKV serotype I (ST1) virus-like particles (VLPs) (UniProt P03088 1-362)
[3] = target: BKV serotype IV (ST4) virus-like particles (VLPs) (UniProt P14996 1-362)
[4] = target: BKV serotype III (ST3) virus-like particles (VLPs) (UniProt P14996 1-362)

| Binder | Kd [1] | Kd [2] | Kd [3] | Kd [4] |
| --- | --- | --- | --- | --- |
| NOV796 (antibody, V domains shown) VH: QVQLVQSGPGLVKPSETLSLTCSVSGGSISGYYWSWIRQPPGKGLEWIGLIYESGSANYNPSLKSRVTISLDTSKNQFSLKLKSVTAADTAVYYCARRVRGWSYGMDVWGQGTTVAVSS VL: DIVLTQSPGTLSLSPGETATLSCRASQILSSSFLAWFQQIPGQAPRLLIYAASSRATGIPDRFSGSGSGTDFSLTISRLEPEDFAVYYCQHYGSSPPWTFGQGTKVEIKR | 0.006 nM | 0.003 nM | 0.0009 nM | 0.007 nM |
| NOV530 (antibody, V domains shown) VH: QVQLQESGPGLVKPSQTLSLTCTVSGGSISGGGYYWSWIRQHPGKGLEFIGYIYYNRGTYYNPALKSRLTISVDTSKNDFSLKLSSVSAADTAVYYCARCVLGGYGSDAFDRWGQGTTVTVAS VL: EIVLTQSPVTLSLSPGERAILSCRASQSVSSHLAWYQQKPGQAPRLLIYDASSRANGIPARFSGSGSGTDFTLTISSLAPEDFAVYYCQQRSSWPPSLTFGGGTKVEIRR | – | 0.015 nM | – | – |
| NOV581 (antibody, V domains shown) VH: QVQLVESGGGLVQPGGSLRLSCVASGFTFSGYNMHWVRQAPGKGLEWVSYISNSGRTIYYADSVKGRFTLSRDNAKNSLYLQMNSLRAEDTAVYFCARDRDPQWLGNDALQIWGQGTMVTVSS VL: EIVLTQSPGTLSLSPGERATLSCRASQSVSSGYLAWYQQKPGQAPRLLIYGASSRATGIPDRFSGSGSGTDFTLTISRLEPEDFAVYYCQQYGTSRKTFGQGTKVEIKR | 0.069 nM | 0.044 nM | > 6.6 nM | 0.092 nM |
